{"source": "patent US9347942B2", "about": "“Ultrasensitive cell based sensors and uses thereof” (CANVAX BIOTECH SL, priority 2010, dated 2016)", "molecules": {"B1": {"name": "Native (unmodified) huCasp-3: human native unmodified procaspase-3 zymogen expressed in E. coli with polyhistidine tag (protein, UniProt P42574 1-277, looked up)", "pro-form": "MENTENSVDSKSIKNLEPKIIHGSESMDSGISLDNSYKMDYPEMGLCIIINNKNFHKSTGMTSRSGTDVDAANLRETFRNLKYEVRNKNDLTREEIVELMRDVSKEDHSKRSSFVCVLLSHGEEGIIFGTNGPVDLKKITNFFRGDRCRSLTGKPKLFIIQACRGTELDCGIETDSGVDDDMACHKIPVEADFLYAYSTAPGYYSWRNSKDGSWFIQSLCAMLKQYADKLEFMHILTRVNRKVATEFESFSFDATFHAKKQIPCIVSMLTKELYFYH", "modifications": "pro-form polyhistidine tag", "notes": "human native unmodified procaspase-3 zymogen expressed in E. coli with polyhistidine tag"}, "B2": {"name": "Rat granzyme B: Granzyme B of rat (NM_138517) used as granule stored reporter (protein, UniProt P18291 21-248, looked up)", "Granzyme B": "IIGGHEAKPHSRPYMAYLQIMDEYSGSKKCGGFLIREDFVLTAAHCSGSKINVTLGAHNIKEQEKMQQIIPVVKIIPHPAYNSKTISNDIMLLKLKSKAKRSSAVKPLNLPRRNVKVKPGDVCYVAGWGKLGPMGKYSDTLQEVELTVQEDQKCESYLKNYFDKANEICAGDPKIKRASFRGDSGGPLVCKKVAAGIVSYGQNDGSTPRAFTKVSTFLSWIKKTMKKS"}}, "key": {"[1]": {"target": "T1, human granzyme B (Homo sapiens, UniProt P10144)", "T1 construct": "expressed in transfected cells; host or cells: supernatant of RBL-2H3 stably transfected with human granzyme B, treated with ionomycin", "T1 sequence (P10144 21-247)": "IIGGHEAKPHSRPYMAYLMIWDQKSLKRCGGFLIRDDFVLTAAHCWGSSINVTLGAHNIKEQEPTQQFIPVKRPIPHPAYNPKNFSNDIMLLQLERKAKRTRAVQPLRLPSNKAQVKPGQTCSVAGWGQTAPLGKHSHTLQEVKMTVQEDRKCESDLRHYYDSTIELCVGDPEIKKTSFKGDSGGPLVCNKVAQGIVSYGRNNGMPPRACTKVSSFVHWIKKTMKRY", "experiment": "Direct detection of secreted granzyme B with peptide substrates (Example 10)", "type": "biochemical", "conditions": "for signal to background: ionomycin 10 uM", "experimental": "Human granzyme B was used as a model enzyme. […] Cleavage of FAM-TAMRA labelled peptide was detected by fluorescence using excitation at 485 nm and emission at 535 nm and labelled peptide at 1 uM final concentration.\nFor each substrate the exocytosis of 50.000, 25.000, 12.500, 6.250, 3.125, 1560, 780 and 390 cells was analysed. Cells were seeded the night before experiment at the above densities in 96 well plates using 100 uL of complete cell culture medium per well. The day of experiment cells were washed with HBSS buffer and exocytosis was initiated by addition of ionomycin at 10 uM final concentration in HBSS buffer and incubation for 60 minutes at 37 Celsius degrees. Controls of cells treated with HBSS buffer only were included for basal release determination. Five replicas of each cell density for each substrate were seeded. Supernatant from cells were centrifuged at 400 g for 5 minutes and used for fluorescence determination in 96 well plates. Released AMC was measured by excitation at 360 nm and emission at 460 nm in a BMG Labtech microplate fluorimeter in 96 well microplates while released FAM was measured by excitation at 485 nm and emission at 535 nm in the same reader. Microplates were incubated at 37 Celsius degrees on the reader and were kinetically read at 0, 15, 30, 45 and 60 minutes. Control wells with substrate only in HBSS buffer were included to subtract autofluorescence of substrates to both cells treated with ionomycin and to cells treated with HBSS buffer only. An arbitrary signal to background of about two was selected as sensitivity."}, "[2]": {"test_system": "RBL-2H3 cells", "experiment": "Ionomycin-induced release of granzyme B from different species, stable cell lines (Example 6)", "type": "cell-based, Rat", "conditions": "100.000 cells per well, 10 uM ionomycin 1 hour, IEPD-AMC", "text": "This experiment was designed to test if granule stored protease reporters from other species different from human could be used for the methods of the present invention. As an example we selected granzyme B from different species. Vectors were developed for expression of human, rat, horse and chimpanzee granzyme B and RBL-2H3 cells were individually transfected with the plasmids comprising the chimeric promoter of hCMV-MoMLV5′LTR-GranzymeB-IRES-NGFR with hygromycin resistance for stable transfections. Each vector was individually electroporated using a microporator (Digital Bio Technology, South Korea) into RBL-2H3 and after 48 hours hygromycin at 1500 ug/ml_was added to culture for selection. After selection for about 2 weeks cells were analysed by flow cytometry (Guava Technologies, USA) with an antibody against NGFR coupled to FITC. Positive population where magnetically separated by MACS using anti-NGFR-MACS sup.R (Miltenyi Biotec, Germany). Sorted populations were again analysed again by flow cytometry to check the sorting efficiency. Percentage of NGFR positive cells was always higher than 65 percent. Cells were seeded the night before experiment in 96 well microplates at 100.000 cells per well in 100 microliters of medium. Next day cells were washed with BSS buffer and were treated with 10 uM ionomycin for 1 hour at 37 Celsius degrees in 105 uL of HBSS buffer and after centrifugation at 400 g for 5 minutes supernatants were analysed for activity with specific fluorescent substrates. Controls of cells incubated with HBSS buffer only were included. Fluorescent substrate was IEPD-AMC for all granzymes B tested. Released AMC was measured by excitation at 360 nm and emission at 460 nm in a BMG Labtech microplate fluorimeter in 96 well microplates using 105 microliters of supernatant and 145 microliters of specific substrate at 345 micromol per liter in HBSS buffer. Microplates were incubated at 37 Celsius degrees on the reader and were kinetically read at 0, 15, 30, 45 and 60 minutes. Control wells with substrate only in HBSS buffer were included to subtract autofluorescence of substrates to both cells treated with ionomycin and to cells treated with HBSS buffer only."}, "[3]": {"test_system": "RBL-2H3 cells", "experiment": "Ionomycin-induced release of granule stored protease reporters from stable cell lines (Example 5)", "type": "cell-based, Rat", "conditions": "stable RBL-2H3, 10 uM ionomycin 1 hour, supernatant equivalent to 100.000 cells, AMC substrate", "text": "As either tryptase-like enzymes, chymase-like enzymes, elastase-like enzymes or asp-ase like enzymes are useful for the methods of the present invention we selected human granzyme A (tryptase-like enzyme); human granzyme B (Asp-ase-like enzyme); human chymase (chymase-like enzyme) and human proteinase 3 (elastase-like enzyme) for further examples. Vectors were developed for stable expression of human granzyme A, human granzyme B, human chymase and human proteinase 3 under the control of hCMV-MoMLV5′LTR chimeric promoter. A hygromycin resistance cassette was included in the vector backbone for selection of stable populations of cells. The vector also included an IRES-NGFR cassette cloned downstream of granule stored protease reporter and thus, under the control of hCMV-MoMLV5′LTR promoter for flow cytometry and/or selection by MACS of stable cells expressing either human granzyme A or human granzyme B or human chymase or human proteinase 3. Each vector was individually electroporated using a microporator (Digital Bio Technology, South Korea) into RBL-2H3 and after 48 hours hygromycin at 1500 ug/mL was added to culture for selection. After selection for about 2 weeks cells were analysed by flow cytometry (Guava Technologies, USA) with an antibody against NGFR coupled to FITC. Positive population where magnetically separated by MACS using anti-NGFR-MACS sup.R (Miltenyi Biotec, Germany). Sorted populations were again analysed again by flow cytometry to check the sorting efficiency. Percentage of NGFR positive cells was always higher than 65 percent. Cells were seeded the night before experiment in 24 well microplates at 650.000 cells per well in 800 microliters of complete cell culture medium. Next day cells were washed with HBSS buffer and were treated with 10 uM ionomycin for 1 hour at 37 Celsius degrees in 200 uL of HBSS buffer and after centrifugation at 400 g for 5 minutes supernatants were analysed for activity with specific fluorescent substrates. Controls of cells incubated with HBSS buffer only were included. Fluorescent substrates were: VANR-AMC for granzyme A; PEEI-AMC for human neutrophil elastase; PTSY-AMC for human chymase; VADC-AMC for human proteinase 3 and IEPD-AMC for human granzyme B. Released AMC was measured by excitation at 360 nm and emission at 460 nm in a BMG Labtech microplate fluorimeter in 96 well microplates using 125 microliters of supernatant and 125 microliters of specific substrate at 400 micromol per liter in HBSS buffer. Microplates were incubated at 37 Celsius degrees on the reader and were kinetically read at 0, 15, 30, 45 and 60 minutes. Control wells with substrate only in HBSS buffer were included to subtract autofluorescence of substrates to both cells treated with ionomycin and to cells treated with HBSS buffer only. Autofluorescence of peptide substrates in HBSS buffer was about 3000 while fluorescence of cells treated with HBSS buffer only for 60 minutes at 37 Celsius degrees was about 5000, that is basal release in the absence of exocytosis modulator was about 2000. In contrast, fluorescence of ionomycin-induced release of human granzymes A and B was about 20.000 for a signal to background of 10 when using the supernatant equivalent to 100.000 cells; fluorescence of ionomycin-induced release of human chymase was about 30.000 for a signal to background of 15 when using the supernatant equivalent to 100.000 cells and fluorescence of ionomycin-induced release of human proteinase 3 was about 12.000 for a signal to background of 6 when using the supernatant equivalent to 100.000 cells. Thus, tryptase-like enzymes, chymase-like enzymes, elastase-like enzymes or asp-ase like enzymes can be stably expressed into granules of hemopoyetic cells with professional regulated exocytosis and such granule stored proteases are released by exocytosis modulators to produce sensors with good signal to background ratios using specific AMC-coupled peptide substrates. […]"}, "[4]": {"target": "T1, human granzyme B", "experiment": "Procaspase-3 zymogen activation by secreted granzyme B, DEVD-AMC readout (Example 11)", "type": "biochemical", "text": "As a model we selected human granzyme B. A human granzyme B activated-zymogen was developed from human native unmodified procaspase-3 (huCasp3) and from a mutated human procaspase-3 (mut-huCasp3) where the amino acids from 172 to 179 has been changed from […]to […] that is Threonine at 174 has been mutated to Proline because IEPD is a better granzyme B substrate than IETD and serine at 176 has been mutated to valine, glycine at 177 has been mutated to leucine, valine at 178 has been mutated to methionine and aspartic acid at 179 has been mutated to glutamic acid in order to both improve cleavage efficiency by human granzyme B and to reduce autoactivation of procaspase-3. cDNA from both variants of human pro-caspase-3 comprising amino acids from Serine at 29 to Aspartic acid at 192 were cloned into pET43a+ vector from Novagen. After sequencing expression vectors were transformed into BL21 DE3pLys E. coli strain for protein expression. Each protein was cloned with a polyhistidine tag at C-terminal end for purification. Human native procaspase-3 (huCasp3) was induced for only 30 minutes to prevent autoactivation, while mutated procaspase-3 (mut-huCasp3) was induced both for 30 minutes and for 2 hours. DEVD-AMC substrate was used for detection of active caspase-3 with excitation at 360 nm and emission at 460 nm. A supernatant equivalent to 15.000 RBL-2H3 stably transfected with human granzyme B treated with 10 uM ionomycin for 60 minutes was used for zymogen activation. Human granzyme B activity of such supernatant when measured with IEPD-AMC produced a signal to background of 2.6 after incubation for 60 minutes at 37 Celsius degrees using a supernatant equivalent to 25.000 cells. Background of fluorescence of DEVD-AMC substrate was 2775 and was subtracted from both granzyme B treated caspase-3 and non-granzyme B treated caspase-3 (caspase-3 only) used as control and all samples were tested by triplicate."}}, "note": "FAM = fluorophore of the FRET substrate", "data": [{"molecule": "FAM-Ser-Ile-Glu-Pro-Asp-Ser-Gly-Ser-TAMRA ({FAM}-SIEPDSGS-{TAMRA}) [FAM-TAMRA peptide, custom designed FRET based granzyme B substrate]", "values": [{"measurement": "signal to background", "setting": "[1]; 390 cells", "result": "< 2"}, {"measurement": "signal to background", "setting": "[1]; 780 cells", "result": 3}, {"measurement": "times more sensitive for detection of granzyme B than IEPD-AMC peptide", "setting": "[1]; sensitivity taken as 780 cells", "result": "more than 30 times"}]}, {"molecule": "Human granzyme B: Asp-ase-like serine protease (GZMB, NM_004131) used as granule stored reporter", "values": [{"measurement": "Fluorescence of supernatant from cells treated with ionomycin", "setting": "[2]", "result": "20,000"}, {"measurement": "signal to background", "setting": "[2]", "result": 10}, {"measurement": "fluorescence of ionomycin-induced release", "setting": "[3]", "result": "about 20.000"}, {"measurement": "signal to background", "setting": "[3]", "result": 10}]}, {"molecule": "B1", "values": [{"measurement": "times more sensitive than direct detection of secreted granzyme B with IEPD-AMC", "setting": "[4]; 15.000 cells versus 25.000 cells", "result": "about 1.7 times"}, {"measurement": "Fluorescence of Caspase-3 only", "setting": "[4]; no granzyme B, DEVD-AMC, background 2775 subtracted", "result": 15775}, {"measurement": "signal to background (S/B)", "setting": "[4]; supernatant equivalent to 15.000 cells, DEVD-AMC", "result": 2.8}, {"measurement": "Fluorescence of caspase-3 treated with granzyme B", "setting": "[4]; supernatant equivalent to 15.000 ionomycin treated cells, DEVD-AMC, background 2775 subtracted", "result": 43548}]}, {"molecule": "B2", "values": [{"measurement": "Fluorescence of supernatant from cells treated with ionomycin", "setting": "[2]", "result": "22,000"}, {"measurement": "signal to background", "setting": "[2]", "result": 11}]}]}
